According to article PMC6428923:

Biological target: GDP-bound KRAS4b-farnesyl (farnesylated, not carboxy-methylated) (UniProt P01116)
Experiment: ITC

Kd: 1500 nM
Substance: calmodulin (CaM), full-length, amino acids 2-148 (from UniProt P0DP23 2-148) (natural protein)
